Reference: patent publication US20240083958A1, “G PROTEIN PEPTIDOMIMETICS” (VRIJE UNIVERSITEIT BRUSSEL, priority 2020, published 2024)
Read-outs that look alike come from different tables or passages of the source. Values belong to the molecule of their own block, whether it stands above or below them. Bridge positions count the residues as written; N and C are the ends. Square brackets hold non-standard residues; d marks the D form. Primed or numbered codes have the meaning given here. Azk = residue with azidated side chain, clicked to Pra; Pra′ = residue with alkynyl side chain, clicked to Azk; Cha = N[C@@H](CC1CCCCC1)C(=O)O

Columns and labels:
human β2AR [1] = biological target: T1, human β2AR (human, UniProt P07550 2-365); assay: cell-based or functional assay
human β2AR [2] = biological target: T2, human β2AR (Homo sapiens, UniProt P07550, N187E); assay: Radioligand binding assay (RLA) with human β2AR, 3H-dihydroalprenolol (DHA) as radioligand, isoproterenol (agonist) as cold competitor, in presence and absence of the peptidomimetic
T2 construct: made in house; host or cells: Sf9 insect cells (Bac-to-Bac baculovirus); membrane extracts
Procedure: β2AR365N constructs were expressed in Sf9 insect cells, using the Bac-to-Bac® Baculovirus Expression System. The membrane extracts were prepared from cells that expressed β2AR. Subsequently, the cell pellet was resuspended in a buffer (1 ml buffer/2×1E7 cells) containing 75 mM Tris pH 7.4, 12.5 mM MgCl2, 1 mM EDTA, Leupeptin and PMSF as protease inhibitors. Afterwards the cells were vortexed and homogenized in ice using a small volume Ultraturrax (6×10 sec). The cells were then centrifuged for 15 min at 16000 rcf, in a pre-cooled centrifuge (4° C.) and resuspended in the previous buffer containing 10% sucrose. Finally, the membranes were again homogenized in ice with the small volume Ultraturrax (3×10 sec). The protein concentration in the membrane fragments was determined using a Pierce BCA Protein Assay Kit and the protein concentration was extrapolated from the Bovine Serum Albumine standard curve.
To perform the radioligand competition binding assays, 96-well plates were used. For the assays on β2AR, the membrane extracts as well as the peptides were prepared in a binding buffer (75 mM Tris pH 7.4, 12.5 mM MgCl2, 1 mM EDTA, 0.2% BSA). The ligand (isoproterenol) and radioligand ([^3H]-dihydroalprenolol) were dissolved in ligand buffer (75 mM Tris pH 7.4, 12.5 mM MgCl2, 1 mM EDTA, 0.2% BSA and 0.1% ascorbic acid), at 1 mM and 2 nM, respectively. A ten-fold dilution series of the ligand was prepared to obtain a dose response curve. For each reaction 100 μl membrane extract, 50 μl ligand, 50 μl peptide or binding buffer containing 1% DMSO and 50 μl of radioligand was added to the V-bottom storage plate, with a total volume of 250 μl per well. Afterwards, the plates were incubated at room temperature for 2 h on a plate shaker (150 rpm). The samples were harvested into filter plates and washed with ice cold washing buffer (75 mM Tris pH 7,4) using the 96-well harvester. The plates were dried for 1 h at 50° C. and then sealed to allow the addition of 30 μl scintillation liquid to each well. Finally, the top of each plate was sealed and the plates were placed in a Wallac MICROBETA® Trilux scintillation counter and incubated for 30 min in the dark.
(§1) After the Microbeta scintillation counter, the experimental data was further analyzed using Graphpad Prism 6.0. After normalization of the raw data, a nonlinear regression was used to fit the data in a one-site binding model, with the total binding set as 100% and the non-specific binding between 0 and 5%. The IC50 values, obtained from the competition curves, were used to determine the shift for each peptide, which is the ratio of IC50 of the agonist test compound on the basal conformation (e.g. IC50 β2AR with no peptidomimetic) versus the active conformation (e.g. IC50 β2AR+peptidomimetic) of the receptor. For certain peptide analogues, a biphasic binding curve was observed and therefore fitted by a two-site model (nonlinear regression), resulting in two IC50 values (IC50Hi and IC50Lo) and a FractionHi, the fraction of receptors in the active state.
Synthesised peptidomimetics were evaluated using a radioligand binding assay (RLA) with a human β2AR, using ^3H-dihydroalprenolol (DHA) as the radioligand and increasing concentrations of isoproterenol (agonist) as cold competitor. In particular, the pharmacological stabilization of the receptor in the active conformation was evaluated by performing the radioligand displacement assay (RLA) in the presence and absence of the peptidomimetics. This validated assay quantifies the pharmacological stabilization of the receptor in the active conformation by comparing the affinities of an agonist for the basal versus the active GPCR conformer (Pardon et al. (2018) Angewandte Chemie International Edition 57, 5292-5295). During the assay, the binding affinity of an orthosteric agonist for the receptor, in particular isoproterenol for human β2AR, in presence and absence of the allosteric peptidomimetic was determined. […]

[3] = biological target: dopamine 1 receptor (D1R) (Homo sapiens, UniProt P21728); assay: GPCR-radioligand binding assay (RLA) with dopamine 1 receptor (D1R), [3H]-SCH23390 as radiolabelled antagonist, A-77636 (agonist), in presence and absence of the peptidomimetic; conditions: Table 19; peptidomimetic at 10 μM; ratio IC50 D1R alone / IC50 D1R + peptidomimetic
Sequence of dopamine 1 receptor (D1R) (Homo sapiens, UniProt P21728) (P21728 whole entry): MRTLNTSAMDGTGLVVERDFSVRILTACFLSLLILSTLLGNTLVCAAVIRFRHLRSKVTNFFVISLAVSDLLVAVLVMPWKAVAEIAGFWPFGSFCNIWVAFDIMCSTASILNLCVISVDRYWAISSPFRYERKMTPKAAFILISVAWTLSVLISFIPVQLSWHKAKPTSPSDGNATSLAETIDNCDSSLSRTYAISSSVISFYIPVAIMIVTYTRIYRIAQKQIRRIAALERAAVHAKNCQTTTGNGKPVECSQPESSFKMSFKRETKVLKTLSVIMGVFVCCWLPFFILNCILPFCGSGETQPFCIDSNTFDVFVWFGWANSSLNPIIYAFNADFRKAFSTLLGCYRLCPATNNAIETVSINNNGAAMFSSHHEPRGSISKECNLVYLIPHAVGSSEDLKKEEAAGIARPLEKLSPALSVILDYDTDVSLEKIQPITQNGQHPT
Procedure: For the radioligand assays on D1R a similar buffer, as for β2AR, was used for the ligands, membrane extracts and peptides (+1% DMSO). The competition assay was performed with [^3H]-SCH23390 as radiolabelled antagonist, at a concentration of 2 nM. A ten-fold dilution series of the agonist, A-77636, was prepared to obtain a dose response curve, starting from 100 μM for the receptor alone and 10 μM in the presence of the peptidomimetics. After incubation, the samples were harvested into filter plates, pre-soaked with 0.5% polyethylenimine (PEI), and washed with ice cold washing buffer using the 96-well harvester. After drying in the oven during 1 h and the addition of scintillation liquid, the plates were placed in the MICROBETA® scintillation counter and incubated for 30 min in the dark before reading.
as §1
Peptidomimetics were screened using GPCR-radioligand binding assay (RLA) with dopamine 1 receptor (D1R) binding, using [^3H]-SCH23390 as radiolabelled antagonist, and increasing concentrations of A-77636 (agonist). The half maximal inhibitory concentration (IC50) represents the affinity of the agonist for the receptor. The selectivity is quantified by the shift. “[ ]” denotes cyclic peptides.

human β2AR [4] = biological target: T1, human β2AR; assay: cell-based or functional assay; remark: listed apart in the source
human β2AR [5] = biological target: T1, human β2AR; assay: cell-based or functional assay; remark: listed apart in the source
human β2AR [6] = biological target: T1, human β2AR; assay: cell-based or functional assay; remark: listed apart in the source
human β2AR [7] = biological target: T1, human β2AR; assay: cell-based or functional assay; remark: listed apart in the source
human β2AR [8] = biological target: T1, human β2AR; assay: cell-based or functional assay; remark: listed apart in the source
human β2AR [9] = biological target: T1, human β2AR; assay: cell-based or functional assay; remark: listed apart in the source
human β2AR [10] = biological target: T1, human β2AR; assay: cell-based or functional assay; remark: listed apart in the source
human β2AR [11] = biological target: T1, human β2AR; assay: cell-based or functional assay; remark: listed apart in the source
human β2AR [12] = biological target: T1, human β2AR; assay: cell-based or functional assay; remark: listed apart in the source
[13] = biological target: dopamine 1 receptor (D1R) (UniProt P21728 1-446, limits assumed); assay: cell-based or functional assay
Sequence of dopamine 1 receptor (D1R) (UniProt P21728 1-446, limits assumed) (P21728 whole entry): as above

IC50 (nM) of isoproterenol, [3H]-DHA RLA, Nb80 present (human β2AR [1]): 9.7 nM
Shift (human β2AR [1]): 146
Molecule: Nb80 (VHH)

Shift (human β2AR [2]; Table 1, ratio IC50 β2AR alone / IC50 β2AR + peptidomimetic): 6
Shift [3]: 2
Molecule: FNDCRDIIQRMHLRQYELL [compound 2, Ac-FNDCRDIIQRMHLRQYELL-OH]

Fraction HI (%) (human β2AR [2]; Table 10, peptidomimetic at 1 μM (printed 511 μM), fraction of receptors in the active state): 54%
Fraction HI (%) (human β2AR [2]; Table 10, peptidomimetic at 10 μM, fraction of receptors in the active state): 76%
Shift (human β2AR [2]; Table 10, peptidomimetic at 10 μM, ratio IC50 β2AR alone / + peptidomimetic): 175
Fraction HI (%) (human β2AR [2]; Table 10, peptidomimetic at 50 μM, fraction of receptors in the active state): 79%
Shift (human β2AR [2]; Table 10, peptidomimetic at 50 μM, ratio IC50 β2AR alone / + peptidomimetic): 170
Fraction HI (%) (human β2AR [2]; Table 10, peptidomimetic at 100 μM, fraction of receptors in the active (high affinity) state, two-site model): 77%
Shift (human β2AR [2]; Table 10, peptidomimetic at 100 μM, ratio IC50 β2AR alone / + peptidomimetic): 345
Shift (human β2AR [2]; Table 10, ratio IC50 β2AR alone / + peptidomimetic): 21
Shift [3]: 52
Molecule: Ac-KKKFN[PraCRDAzk]IQRMHLRQYEChaL-OH (Ac-KKKFN[Pra′]CRD[Azk]IQRMHLRQYE[Cha]L-OH; triazole 6-10) [compound 51]

IC50 (nM) of isoproterenol, [3H]-DHA RLA, peptidomimetic present (human β2AR [4]): 47.3 nM
Shift (human β2AR [4]): 20
IC50 (nM) of isoproterenol, [3H]-DHA RLA, peptidomimetic present (human β2AR [5]): 38.9 nM
IC50 (nM) of isoproterenol, [3H]-DHA RLA, peptidomimetic present (human β2AR [6]): 37.3 nM
Shift (human β2AR [6]): 31
Shift (averaged) (human β2AR [7]): 27
B1: compound 12 (peptide)
peptide: Ac-FN[Pra′]CRD[Azk]IQRMHLRQYELL-OH
modifications: triazole 3-7

IC50 (nM) of isoproterenol, [3H]-DHA RLA, peptidomimetic present (human β2AR [8]): 614 nM
B2: compound 16 (peptide)
peptide: Ac-RDIIQRMHLRQYELL-OH

IC50 (nM) of isoproterenol, [3H]-DHA RLA, peptidomimetic present (human β2AR [8]): 118 nM
IC50 (nM) of isoproterenol, [3H]-DHA RLA, peptidomimetic present (human β2AR [9]): 77.1 nM
Shift (human β2AR [9]): 13
IC50 (nM) of isoproterenol, [3H]-DHA RLA, peptidomimetic present (human β2AR [10]): 97.6 nM
Shift (human β2AR [10]): 9
IC50 (nM) of isoproterenol, [3H]-DHA RLA, peptidomimetic present (human β2AR [11]): 79.4 nM
Shift (human β2AR [11]): 10
Fraction HI (%) (human β2AR [12]): 21%
IC50 (nM) of isoproterenol, [3H]-DHA RLA, peptidomimetic present (human β2AR [12]): 124 nM
Shift (human β2AR [12]): 13
Shift (averaged) (human β2AR [7]): 10
IC50 (nM) of A-77636, [3H]-SCH23390 RLA, compound 2 at 10 µM [13]: 5.8 nM
B3: compound 2 (peptide)
peptide: Ac-FNDCRDIIQRMHLRQYELL-OH
